Experiments:
[1] = Adenosine deaminase (ADA) enzymatic activity assay kit; format: biochemical
Method: Adenosine deaminase activity was determined using an adenosine deaminase (ADA) assay kit (Genway, San Diego, Calif.; Cat. No. BQ014EALD) with minor modifications. The ADA assay is based on the enzymatic deamination of adenosine to inosine, which is converted to hypoxanthine by purine nucleoside phosphorylase (PNP). Hypoxanthine is then converted to uric acid and hydrogen peroxide by xanthine oxidase (XOD). Hydrogen peroxide is further reacted with N-Ethyl-N-(2-hydroxy-3-sulfopropyl)-3-methylaniline (EHSPT) and 4-aminoantipyrine (4-AA) in the presence of peroxidase (POD) to generate quinone dye, which is monitored in a kinetic manner.
Briefly, 5 μL samples in duplicates (at appropriate dilutions to measure steady-state, non-saturating enzyme activity) were added to 120 μL R1 reagent (provided by the manufacturer; 50 mM Tris HCL, pH 8.0, 2 mM 4-AA, 0.1 U/mL PNP, 0.2 U/mL XOD, 0.6 U/mL peroxidase) in a 96 well plate, according to manufacturer's instructions. The mixtures were incubated at 37° C. for approximately 5 min and 60 μL of R2 reagent (provided by the manufacturer; 50 mM Tris HCl, pH 4.0, 10 mM Adenosine, 2 mM EHSPT) was added to the mixtures. Then, change in absorbance (AA) at 556 nm over time at 37° C. was measured. One unit of ADA is the amount of ADA that generates one μmole of inosine from adenosine per minute at 37° C. Adenosine deaminase activity in mU/mL was calculated using the following formula: 1 mU/mL=(ΔA/min×Tv)/(Sv×ϵ×1) • where Tv=total volume (185 μL), Sv=sample volume (5 μL), ϵ=32.2×10^−3 μM^−1 cm^−1, 1=0.5 cm.
Adenosine deaminase activity of WT rHuADA2 and variants tested above were determined using the adenosine deaminase activity (ADA) assay described in Example 4. Activity was assessed on purified rHuADA2 WT and variants that were diluted to 5 μg/mL, and then serially diluted 2 fold to generate 4 measurements.
Adenosine deaminase activity of PEGylated rHuADA2 and variants was assessed using the method described in Example 4, and compared to the activity of the corresponding non-PEGylated form.
Selected candidate variants described in Table 8 above, containing an amino acid substitution in a residue that play a role in enzymatic activity, were assessed for their adenosine deaminase activity using the method described in Example 4. To perform the experiments, purified WT rHuADA2 and tested variants were prepared at 5 μg/mL concentration to normalize the amount of protein in each experiment.

[2] = Heparin-affinity chromatography (heparin-Sepharose, SDS-PAGE); format: binding
Method: To assess binding of variants to heparin, heparin-affinity chromatography was employed to identify heparin-bound variants. Heparin binding was tested by mixing 35 μL of rHuADA2 WT and variants with 20 μL heparin-Sepharose™ resin (GE Healthcare, Pittsburgh, Pa.; Cat. No. 17-0998-01), followed by incubating at room temperature for 30 min. The mixture was then centrifuged through a 0.22 μm centrifuge filter and the flow-through, containing the unbound protein, was collected for analysis on an SDS-PAGE gel. 35 μL of 1.5 M NaCl was added to heparin-Sepharose resin and incubated at room temperature (RT) for 10 min to elute the remaining heparin-bound protein from the heparin-Sepharose. Samples of purified WT rHuADA2 and tested variants, before and after mixing with the heparin-Sepharose resin, were analyzed by SDS-PAGE to compare the degree of heparin binding.

[3] = Kinetic assessment of adenosine deaminase activity (ammonia assay, Michaelis-Menten); format: biochemical
Method: Adenosine deaminase activity was determined by the measurement of ammonia released from adenosine when broken down to inosine. Ammonia was measured using a commercially available Ammonia Assay kit (Cat. No. AA0100, Sigma-Aldrich, St. Louis, Mo.). The kit contains dry reagents containing α-ketoglutaric acid and NADPH, which were reconstituted with 5 mL water prior to use in the assay. Ammonia reacts with α-ketogluaric acid (KGA) and reduced nicotinamide adenine dinucleotide phosphate (NADPH) in the presence of L-glutamate dehydrogenase (GDH).
Kinetics parameters of rHuADA2 WT and variants were compared using this assay at different adenosine concentrations at pH 7.6 and 6.5. Adenosine concentrations ranging from 20 μM to 20 mM were used. Sub-molar concentration of adenosine stock was prepared in 1N NaOH.
For the enzymatic assays at pH 7.6, adenosine was serially diluted with 100 mM sodium acetate (NaOAc), pH 4.9. A 2× reaction mixture was prepared, containing reconstituted ammonia assay reagent (containing about 4 mM α-ketoglutarate and about 300 μM NADPH), WT rHuADA2 or variants at 1 μg/mL (17 nM) and glutamate dehydrogenase (GDH, 1:50 dilution). 85 μL of adenosine was added to 85 μL 2× mixture in duplicate in a UV-transparent half-area plate. The change in absorbance (ΔA) at 340 nm over time at room temperature was monitored.
For the enzymatic assay at pH 6.5, adenosine was serially diluted with 200 mM piperazine-N,N′-bis(2-ethanesulfonic acid) (PIPES), pH 6.5. A 2× reaction mixture in 200 mM PIPES, pH 6.5 was prepared, containing 4 mM α-ketoglutarate, 300 μM NADPH, 1 μg/mL (17 nM) rHuADA2 or variants and 50 U/mL GDH (Cat No. G2626, Sigma-Aldrich). The enzymatic reaction was initiated by adding equal volume of adenosine to the 2× mixture in a UV-transparent half-area plate as described above, and the change in absorbance (AA) at 340 nm over time at room temperature was monitored.
Adenosine deaminase activity in mU/mL (μM/min equivalent) was calculated using the following formula: 1 mU/mL=−(−ΔA/min×Tv)/(Sv×ϵ×1) • where Tv=total volume (170 μL), Sv=sample volume (85 μL), ϵ=6.22×10^−3 μM^−1 cm^−1, 1=1 cm.
The activity data were fitted with non-linear regression of Michaelis-Menten equation using Graphpad Prism software to obtain Km and Vmax. Other kinetics parameters such as kcat and kcat/Km were also determined.

[4] = protein diluted to 5 μg/mL, serially diluted 2 fold (Table 21)

B1: R23A: ADA2 variant SEQ ID NO:28 (protein)
chain: IDETRAHLLLKEKMMRLGGALVLNTKEELANERLMTLKIAEMKEAMRTLIFPPSMHFFQAKHLIERSQVFNILRMMPKGAALHLHDIGIVTMDWLVRNVTYRPHCHICFTPRGIMQFRFAHPTPRPSEKCSKWILLEDYRKRVQNVTEFDDSLLRNFTLVTQHPEVIYTNQNVVWSKFETIFFTISGLIHYAPVFRDYVFRSMQEFYEDNVLYMEIRARLLPVYELSGEHHDEEWSVKTYQEVAQKFVETHPEFIGIKIIYSDHRSKDVAVIAESIRMAMGLRIKFPTVVAGFDLVGHEDTGHSLHDYKEALMIPAKDGVKLPYFFHAGETDWQGTSIDRNILDALMLNTTRIGHGFALSKHPAVRTYSWKKDIPIEVCPISNQVLKLVSDLRNHPVATLMATGHPMVISSDDPAMFGAKGLSYDFYEVFMGIGGMKADLRTLKQLAMNSIKYSTLLESEKNTFMEIWKKRWDKFIADVATK
modifications: human ADA2 R20A, mature numbering
In the case of B1, the “enzymatic activity relative to WT rHuADA2” value [1] is reported as “reduced adenosine deaminase activity”, the “adenosine deaminase activity mU/mL” value [1, 4] is reported as 53.3 mU/mL and the “ΔA/min, adenosine deaminase activity” value [1, 4] is reported as 23.2. The “% activity vs. WT” value ([1]; relative to rHuADA2 WT (Table 21)) was 68.4%, the “heparin binding compared to WT” value [2] was “reduced heparin binding” and the “Heparin Column Binding” value ([2]; compared to WT rHuADA2, 0.3 mg/mL protein) was “Reduced”.

B2: R222Q: ADA2 variant SEQ ID NO:39 (protein)
chain: IDETRAHLLLKEKMMRLGGRLVLNTKEELANERLMTLKIAEMKEAMRTLIFPPSMHFFQAKHLIERSQVFNILRMMPKGAALHLHDIGIVTMDWLVRNVTYRPHCHICFTPRGIMQFRFAHPTPRPSEKCSKWILLEDYRKRVQNVTEFDDSLLRNFTLVTQHPEVIYTNQNVVWSKFETIFFTISGLIHYAPVFRDYVFRSMQEFYEDNVLYMEIRAQLLPVYELSGEHHDEEWSVKTYQEVAQKFVETHPEFIGIKIIYSDHRSKDVAVIAESIRMAMGLRIKFPTVVAGFDLVGHEDTGHSLHDYKEALMIPAKDGVKLPYFFHAGETDWQGTSIDRNILDALMLNTTRIGHGFALSKHPAVRTYSWKKDIPIEVCPISNQVLKLVSDLRNHPVATLMATGHPMVISSDDPAMFGAKGLSYDFYEVFMGIGGMKADLRTLKQLAMNSIKYSTLLESEKNTFMEIWKKRWDKFIADVATK
modifications: human ADA2 R219Q, mature numbering
B2 showed a Km ([3]; pH 6.5) of 994 µM, a Km ([3]; pH 6.5, [E] = 8.5 nM) of 994 µM and a Vmax ([3]; pH 6.5, [E] = 8.5 nM) of 42.15 µM/min. For the same molecule, the kcat ([3]; pH 6.5, [E] = 8.5 nM, kcat=Vmax/0.0085/60) was 82.65 s⁻¹, the Km ([3]; pH 7.6) was 1920 µM and the Km ([3]; pH 7.6, [E] = 8.5 nM) was 1920 µM. The Vmax ([3]; pH 7.6, [E] = 8.5 nM) was 59.28 µM/min, the kcat ([3]; pH 7.6, [E] = 8.5 nM, kcat=Vmax/0.0085/60) was 116.24 s⁻¹ and the “Adenosine deaminase activity mU/ml” value ([1]; purified protein at 5 μg/mL) was 132.9 mU/ml. For the same molecule, the “Adenosine deaminase activity ΔA/min” value ([1]; purified protein at 5 μg/mL) was 57.8 ΔA/min and the “% of WT activity” value ([1]; purified protein at 5 μg/mL, compared to WT-ADA2) was 170%.

B3: K374D/C108-T150del→(GGGGS)3 (protein)
chain: IDETRAHLLLKEKMMRLGGRLVLNTKEELANERLMTLKIAEMKEAMRTLIFPPSMHFFQAKHLIERSQVFNILRMMPKGAALHLHDIGIVTMDWLVRNVTYRPHGGGGSGGGGSGGGGSEFDDSLLRNFTLVTQHPEVIYTNQNVVWSKFETIFFTISGLIHYAPVFRDYVFRSMQEFYEDNVLYMEIRARLLPVYELSGEHHDEEWSVKTYQEVAQKFVETHPEFIGIKIIYSDHRSKDVAVIAESIRMAMGLRIKFPTVVAGFDLVGHEDTGHSLHDYKEALMIPAKDGVKLPYFFHAGETDWQGTSIDRNILDALMLNTTRIGHGFALSKHPAVRTYSWDKDIPIEVCPISNQVLKLVSDLRNHPVATLMATGHPMVISSDDPAMFGAKGLSYDFYEVFMGIGGMKADLRTLKQLAMNSIKYSTLLESEKNTFMEIWKKRWDKFIADVATK
modifications: C108-T150 replaced by (GGGGS)3; human ADA2 K371D/C105-T147del->(GGGGS)3, mature numbering
With B3 the Km ([3]; pH 7.6, [E] = 8.5 nM) was 770 µM, the Vmax ([3]; pH 7.6, [E] = 8.5 nM) was 38.12 µM/min and the kcat ([3]; pH 7.6, [E] = 8.5 nM) was 74.75 s⁻¹.

B4: K374D/V102-Q147del→(GGGGS)1 (protein)
chain: IDETRAHLLLKEKMMRLGGRLVLNTKEELANERLMTLKIAEMKEAMRTLIFPPSMHFFQAKHLIERSQVFNILRMMPKGAALHLHDIGIVTMDWLVRNGGGGSNVTEFDDSLLRNFTLVTQHPEVIYTNQNVVWSKFETIFFTISGLIHYAPVFRDYVFRSMQEFYEDNVLYMEIRARLLPVYELSGEHHDEEWSVKTYQEVAQKFVETHPEFIGIKIIYSDHRSKDVAVIAESIRMAMGLRIKFPTVVAGFDLVGHEDTGHSLHDYKEALMIPAKDGVKLPYFFHAGETDWQGTSIDRNILDALMLNTTRIGHGFALSKHPAVRTYSWDKDIPIEVCPISNQVLKLVSDLRNHPVATLMATGHPMVISSDDPAMFGAKGLSYDFYEVFMGIGGMKADLRTLKQLAMNSIKYSTLLESEKNTFMEIWKKRWDKFIADVATK
modifications: V102-Q147 replaced by (GGGGS)1; human ADA2 K371D/V99-Q144del->(GGGGS)1, mature numbering
Work on B4 yielded a Km ([3]; pH 7.6, [E] = 8.5 nM) of 890 µM, a Vmax ([3]; pH 7.6, [E] = 8.5 nM) of 43.46 µM/min and a kcat ([3]; pH 7.6, [E] = 8.5 nM) of 85.22 s⁻¹.

B5: K374D/V102-Q147del→(GGGGS)2 (protein)
chain: IDETRAHLLLKEKMMRLGGRLVLNTKEELANERLMTLKIAEMKEAMRTLIFPPSMHFFQAKHLIERSQVFNILRMMPKGAALHLHDIGIVTMDWLVRNGGGGSGGGGSNVTEFDDSLLRNFTLVTQHPEVIYTNQNVVWSKFETIFFTISGLIHYAPVFRDYVFRSMQEFYEDNVLYMEIRARLLPVYELSGEHHDEEWSVKTYQEVAQKFVETHPEFIGIKIIYSDHRSKDVAVIAESIRMAMGLRIKFPTVVAGFDLVGHEDTGHSLHDYKEALMIPAKDGVKLPYFFHAGETDWQGTSIDRNILDALMLNTTRIGHGFALSKHPAVRTYSWDKDIPIEVCPISNQVLKLVSDLRNHPVATLMATGHPMVISSDDPAMFGAKGLSYDFYEVFMGIGGMKADLRTLKQLAMNSIKYSTLLESEKNTFMEIWKKRWDKFIADVATK
modifications: V102-Q147 replaced by (GGGGS)2; human ADA2 K371D/V99-Q144del->(GGGGS)2, mature numbering
For B5, the Km ([3]; pH 7.6, [E] = 8.5 nM) was 870 µM, the Vmax ([3]; pH 7.6, [E] = 8.5 nM) was 44.52 µM/min and the kcat ([3]; pH 7.6, [E] = 8.5 nM) was 87.29 s⁻¹.
